The values below come from patent US20100040616A1 (published 2010).

Numbering of substitutions follows the chain as printed.

Assay [1] deals with T1, recombinant human CD127 extracellular domain (CD127 ECD) (human) (UniProt P16871).
T1 sequence: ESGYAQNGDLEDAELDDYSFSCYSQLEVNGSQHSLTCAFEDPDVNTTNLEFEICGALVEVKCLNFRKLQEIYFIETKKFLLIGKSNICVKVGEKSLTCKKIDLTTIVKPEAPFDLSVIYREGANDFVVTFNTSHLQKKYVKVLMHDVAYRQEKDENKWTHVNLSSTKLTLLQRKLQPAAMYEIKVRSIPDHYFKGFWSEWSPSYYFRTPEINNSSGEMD
Nature of the assay: ELISA: recombinant human CD127 ECD coated at 5 ug/ml, 9B7 hybridoma material titrated, HRP goat anti-mouse IgG detection. For orientation: In an ELISA, binding on a coated surface is turned into a signal by an enzyme label.

For assay [2], the target named is T1, recombinant human CD127 extracellular domain (CD127 ECD) (human). The assay is described as follows: SPR (Biacore T100), CD127 ECD amine-coupled on CM5, antibody (supernatant material) as analyte. (In general: Surface plasmon resonance follows binding to a sensor surface in real time, without labels.)
The target is the same in assay [3]. The assay is described as follows: affinity for the IL-7Rα ECD (profile summary; SPR).
For assay [4] the target is unchanged. The assay is described as follows: blocking of IL-7/IL-7Rα binding; competitor IL-7; method not given.
The target is the same in assay [5]. Nature of the assay: SPR (Biacore T100, 25 °C), antibody captured on rabbit anti-mouse IgG, CD127 ECD as analyte.
The target in assay [6] is T2, human CD127 expressed on cells (CD127-transfected CHO cells; PBMC and CD4+ T cells in functional assays) (human, UniProt P16871 21-459).
T2 construct: The construct transfected into CHO is not described further; also called CHO-CD127; IL-7Rα expressed on CHO
T2 chain: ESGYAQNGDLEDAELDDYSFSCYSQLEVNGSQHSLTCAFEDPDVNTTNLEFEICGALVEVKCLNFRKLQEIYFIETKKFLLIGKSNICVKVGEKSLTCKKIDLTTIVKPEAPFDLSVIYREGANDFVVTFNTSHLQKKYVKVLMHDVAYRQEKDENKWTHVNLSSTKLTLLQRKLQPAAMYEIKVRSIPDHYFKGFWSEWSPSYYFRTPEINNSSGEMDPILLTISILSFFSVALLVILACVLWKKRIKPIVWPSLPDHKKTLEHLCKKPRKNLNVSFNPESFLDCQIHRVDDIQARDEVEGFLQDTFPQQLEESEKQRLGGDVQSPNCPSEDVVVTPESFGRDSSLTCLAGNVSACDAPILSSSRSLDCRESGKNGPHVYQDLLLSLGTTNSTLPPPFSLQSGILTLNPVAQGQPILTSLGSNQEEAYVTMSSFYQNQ
Nature of the assay: Flow cytometry cross-competition on CHO-CD127 cells: unlabelled antibody titrated against fluorescence-labelled BD anti-CD127 antibody (#552853). The protocol: CHO-CD127 cells were prepared and washed by cold DPBS for 3 times. […] The antibody mixtures were then incubated with the CHO-CD127 cells for 30 min at 4° C. […] (FIG. 15).
In general terms: In flow cytometry, cells or beads pass a laser one at a time.

B1: mAb 9B7 (murine anti-human CD127 monoclonal antibody) (antibody, IgG1, V domains shown)
VH: QVQLQESGPGLVAPSQSLSITCTVSGFSLSRYNVHWVRQPPGKGLEWLGMIWDGGSTDYNSALKSRLSITKDNSKSQVFLKMNSLQTDDTAMYYCARNRYESGMDYWGQGTTVTVSS
VL: DIVMTQTPSSLTVTAGEKVTMSCKSSQSLLNSGNRKNYLTWYQQKPGQSPKLLIYWASTRESGVPDRFTGSGSGTDFTLIISSVQAEDLAVYYCQNDYTYPFTFGSGTKLEIKR
The EC50 (read off the curve) is the concentration that produces a half-maximal response. The term Kd denotes the free concentration of one partner at which half of the binding sites on the other are occupied at equilibrium, for simple one-to-one binding. With B1, the concentration giving a half-maximal response (EC50 (read off the curve)) in assay [1] amounted to 0.6 µg/mL. For the same molecule, the Kd in assay [2] amounted to 0.556 nM.

B2: mAb 6A3 (murine anti-human CD127 monoclonal antibody) (antibody, mouse IgG1, V domains shown)
VH: DVQLQESGPGLVKPSQSLSLTCTVTGYSITTDYAWNWIRQFPGNKLEWMGYIFYSGSTTYTPSLKSRISITRDTSKNQFFLQLNSVTTEDTATYYCARGGYDVNYFDYWGQGTTLTVSS
VL: DIQMTQSPASQSASLGESVTITCLASQTIGAWLAWYQQKPGKSPQLLIYAATRLADGVPSRFSGSGSGTKFSFKISSLQAEDFVSYYCQQFFSTPWTFGGGTKLEIK
The term koff denotes a measure of how fast the partners let go of each other. The IC50 is the concentration that inhibits the measured activity by half. The kon is the rate constant with which the complex forms. Turning to B2, in assay [3], the dissociation constant Kd is 7.99 nM and the koff was 0.000334 s⁻¹. Besides, the IC50 in assay [4] was 1.92 µg/mL. In addition, in assay [5], the dissociation constant (Kd) turned out to be 7.74 nM, the koff was found to be 0.000146 s⁻¹ and the association rate constant (kon) worked out at 18900 M⁻¹ s⁻¹.

B3: mAb 1A11 (murine anti-human CD127 monoclonal antibody) (antibody, mouse IgG1, V domains shown)
VH: EVQLQQSGPELLKPGASMKISCKASGYSFTGYTMNWVKQSHGKNLEWIGLINPYNGVTSYNQKFKGKATLTVAKSSSTAYMELLSLTSEDSAVYYCARGDGNYWYFDVWGAGTTVTVSS
VL: EIVLTQSPAITAASLGQKVTITCSASSSVTYMHWYQQKSGTSPKPWIYEISKLASGVPVRFSGSGSGTSYSLTISSMEAEDAAIYYCQEWNYPYTFGGGTKLEIK
Regarding B3, the 50% inhibitory concentration (IC50) in assay [4] was found to be 1.79 µg/mL. In assay [5], the Kd stood at 3.44 nM and the koff is 0.000251 s⁻¹.

B4: mAb GR34 (reverse engineered clone of R34.34) (antibody, mouse IgG1, V domains shown)
VH: B3 VH with L12V, N55S, V57I, K63N, A73D, S85N
VL: B3 VL with V3I, T30S, V59A, E89Y
Regarding B4, the IC50 in assay [4] is 2.29 µg/mL. Further, in assay [5], the Kd turned out to be 15.3 nM and the off-rate (koff) turned out to be 0.000875 s⁻¹.

B5: mAb 6C5 (murine anti-human CD127 monoclonal antibody) (antibody, mouse IgG1, V domains shown)
VH: EVKLLESGGGLVQPGGSLKLSCAASGFAFSAYWMSWVRQAPGKGLEWIGEINPDSSTINCTPSLKDKFIISRDNAKNTLSLQMNKVRSEDTALYYCARRLRPFWYFDVWGAGTTVTVSS
VL: DVLMTQTPLSLPVSLGDQASISCRSSQSIVQSNGNTYLEWYLQKPGQSPKLLIYKVSNRFSGVPDRFSGSGSGTDFTLKISRVEAEDLGVYYCFQGSHVPRTFGGGTKLEIK
notes: also called Antibody 6C5
For B5, the “IC50 (read off the curve)” value in assay [6] is about 70 µg/mL. In assay [5], the Kd was found to be 24.4 nM, the off-rate constant (koff) was determined as 0.000436 s⁻¹ and the on-rate constant (kon) came to 17900 M⁻¹ s⁻¹.
